Molecular target: human SIRPα (human, UniProt P78324 31-373)
Experiment: Biacore (SPR), format not stated

Sequence of human SIRPα (P78324 31-504): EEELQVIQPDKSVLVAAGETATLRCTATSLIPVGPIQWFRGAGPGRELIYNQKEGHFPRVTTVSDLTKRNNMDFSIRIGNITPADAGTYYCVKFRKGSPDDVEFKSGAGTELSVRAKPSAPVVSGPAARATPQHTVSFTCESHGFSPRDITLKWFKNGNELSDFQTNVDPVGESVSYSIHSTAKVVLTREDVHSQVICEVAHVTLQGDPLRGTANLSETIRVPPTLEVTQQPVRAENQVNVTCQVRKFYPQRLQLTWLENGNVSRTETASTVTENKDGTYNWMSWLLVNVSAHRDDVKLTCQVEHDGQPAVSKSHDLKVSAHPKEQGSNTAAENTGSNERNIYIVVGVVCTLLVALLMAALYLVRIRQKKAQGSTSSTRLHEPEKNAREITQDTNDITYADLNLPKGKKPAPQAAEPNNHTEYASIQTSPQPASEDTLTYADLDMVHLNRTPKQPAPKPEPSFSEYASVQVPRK

| Kd | Binder |
| --- | --- |
| 1.54 nM | Humanized KWAR23 anti-SIRPα antibody (antibody, V domains shown, The phagocytosis assays used HuKwar-G1, a human IgG1 with N297A; also called HuKwar-G1; HuKWar-G1) VH: EVQLVQSGAEVKKPGATVKISCKVSGFNIKDYYIHWVQQAPGKGLEWIGRIDPEDGETKYAPKFQDRATITADTSTDTAYMELSSLRSEDTAVYYCARWGAYWGQGTLVTVSS VL: QIVLTQSPPTLSLSPGERVTLTCSASSSVSSSYLYWYQQKPGQAPKLWIYSTSNLASGVPARFSGSGSGTSYTLTISSLQPEDFAVYFCHQWSSYPRTFGAGTKLEIK |
| 1.18 nM | Mouse KWAR23 anti-SIRPα antibody (antibody, V domains shown, also called mouse antibody; mKWAR) VH: EVQLQQSGAELVKPGASVKLSCTASGFNIKDYYIHWVQQRTEQGLEWIGRIDPEDGETKYAPKFQDKATITADTSSNTAYLHLSSLTSEDTAVYYCARWGAYWGQGTLVTVSS VL: QIVLTQSPAIMSASPGEKVTLTCSASSSVSSSYLYWYQQKPGSSPKLWIYSTSNLASGVPARFSGSGSGTSYSLTISSMEAEDAASYFCHQWSSYPRTFGAGTKLELK |

Source: patent US20200262918A1 (Stanford University, published 2020)
